What all share (test): EMSA
Background: Mobility shift assays separate free from complexed probe on a gel.

Data set [1] relates to phospho-S129 alpha-synuclein (pSyn) (human). Conditions: EMSA: 11 mM Tris, 1 mM EDTA, 50 mM NaCl, pH 8.0-8.5, 20 min on ice then 30 min RT, mutants/deltaNAC: 4 ul protein in 20 mM Tris-HCl, 200 mM NaCl in 10 ul, 0.5% ….
Data set [2] concerns alpha-synuclein (aSyn) (human). Conditions: EMSA: 11 mM Tris, 1 mM EDTA, 50 mM NaCl, pH 8.0-8.5, 20 min on ice then 30 min RT, mutants/deltaNAC: 4 ul protein in 20 mM Tris-HCl, 200 mM NaCl in 10 ul, 0.5% ….
The next data set has as its system aSyn A53T (human). The following applies: 1.4 uM protein, 1.3 nM DNA; EMSA: 11 mM Tris, 1 mM EDTA, 50 mM NaCl, pH 8.0-8.5, 20 min on ice then 30 min RT; mutants/deltaNAC: 4 ul protein in 20 mM Tris-HCl, 200 mM NaCl in 10 ul, 0.5% ….
Data set [3] deals with gamma-synuclein (gSyn) (human). Conditions: up to 57 uM protein, 4 nM DNA; EMSA: 11 mM Tris, 1 mM EDTA, 50 mM NaCl, pH 8.0-8.5, 20 min on ice then 30 min RT; mutants/deltaNAC: 4 ul protein in 20 mM Tris-HCl, 200 mM NaCl in 10 ul, 0.5% ….
The test system of the next data set is aSyn A30P (human). Conditions: 1.4 uM protein, 1.3 nM DNA; EMSA: 11 mM Tris, 1 mM EDTA, 50 mM NaCl, pH 8.0-8.5, 20 min on ice then 30 min RT; mutants/deltaNAC: 4 ul protein in 20 mM Tris-HCl, 200 mM NaCl in 10 ul, 0.5% ….
Data set [4] relates to beta-synuclein (bSyn) (human). The following applies: up to 57 uM protein, 4 nM DNA; EMSA: 11 mM Tris, 1 mM EDTA, 50 mM NaCl, pH 8.0-8.5, 20 min on ice then 30 min RT; mutants/deltaNAC: 4 ul protein in 20 mM Tris-HCl, 200 mM NaCl in 10 ul, 0.5% ….
The test system of the next data set is deltaNAC aSyn (human). The following applies: 1.4 uM protein, 1.3 nM DNA; EMSA: 11 mM Tris, 1 mM EDTA, 50 mM NaCl, pH 8.0-8.5, 20 min on ice then 30 min RT; mutants/deltaNAC: 4 ul protein in 20 mM Tris-HCl, 200 mM NaCl in 10 ul, 0.5% ….
In another data set the test system is aSyn E46K (human). Conditions: 1.4 uM protein, 1.3 nM DNA; EMSA: 11 mM Tris, 1 mM EDTA, 50 mM NaCl, pH 8.0-8.5, 20 min on ice then 30 min RT; mutants/deltaNAC: 4 ul protein in 20 mM Tris-HCl, 200 mM NaCl in 10 ul, 0.5% ….

“And” between values parts separate entries of the source, which are not always exact repeats. Equal values may be shown once.

As to 125 bp DNA, the binding signal (fraction shifted) in data set [1] was determined as 0.007; in data set [2] it was 0.327.

Turning to 200 bp DNA, the binding signal (fraction shifted) was found to be 0.12 in data set [1] and 0.74 in data set [2].

Consider 300 bp DNA (length series), for which the binding signal (fraction shifted) came to 0.617 in data set [1] and 0.803 in data set [2].

300 bp DNA, 56% GC: in data set [2] (57 uM aSyn), the binding signal (fraction shifted) came to 0.81.

Regarding 300 bp DNA, 67% GC, the binding signal (fraction shifted) in data set [2] (57 uM aSyn) amounted to 0.693.

As for “300 bp linear DNA (ends not specified for the experiment)”, the binding signal (fraction shifted) in the data set on aSyn A53T (human) was 0.379; in data set [3], 0; with aSyn A30P (human), 0.27; in data set [4], 0; in data set [2] (1.4 uM protein, 1.3 nM DNA, deltaNAC series), 0.597; in data set [2] (1.4 uM protein, 1.3 nM DNA, point mutant series), 0.55. Also, the binding signal (fraction shifted) is 0.199 in data set [2] (57 uM protein, 4 nM DNA, paralog series); 1 and 0.997 in data set [2]; 1 in the data set with deltaNAC aSyn (human); 0.975 in the data set with aSyn E46K (human). Moreover, the K half came to 27.3 µM in data set [1] (0.1 nM DNA), 32.5 µM in data set [1] (6 nM DNA), 273 nM in data set [2] (0.1 nM DNA) and 5850 nM in data set [2] (6 nM DNA).

On to “300 bp linear DNA with 4-base 5' overhangs”, for which the binding signal (fraction shifted) in data set [1] was found to be 0.573; in data set [2] it was 0.917.

As to 300 bp linear DNA, blunt, the figures for the binding signal (fraction shifted) in data set [1] and in data set [2] were 0.607 and 0.857, respectively.

For the substance 304 bp circular DNA (made with HMGB1), the K half in data set [2] (covalently closed circle) was 1610 nM.

As for “304 bp circular DNA topoisomer (made with HMGB1)”, the K half in data set [2] (covalently closed circle, topoisomer) stood at 1640 nM.

With 400 bp DNA, the binding signal (fraction shifted) in data set [1] was found to be 0.927; in data set [2], 0.947.

On to 500 bp DNA, for which the binding signal (fraction shifted) in data set [1] and in data set [2] was 1 in each case.
